{"source": "paper PMC10641069", "about": "“Intra- and inter-molecular regulation by intrinsically-disordered regions governs PUF protein RNA binding” (Nature Communications, 2023)", "key": {"FBF-2 RBD+CT": {"molecular_target": "T1, FBF-2 RBD+CT (Caenorhabditis elegans, UniProt Q09312 164-632)", "T1 sequence": "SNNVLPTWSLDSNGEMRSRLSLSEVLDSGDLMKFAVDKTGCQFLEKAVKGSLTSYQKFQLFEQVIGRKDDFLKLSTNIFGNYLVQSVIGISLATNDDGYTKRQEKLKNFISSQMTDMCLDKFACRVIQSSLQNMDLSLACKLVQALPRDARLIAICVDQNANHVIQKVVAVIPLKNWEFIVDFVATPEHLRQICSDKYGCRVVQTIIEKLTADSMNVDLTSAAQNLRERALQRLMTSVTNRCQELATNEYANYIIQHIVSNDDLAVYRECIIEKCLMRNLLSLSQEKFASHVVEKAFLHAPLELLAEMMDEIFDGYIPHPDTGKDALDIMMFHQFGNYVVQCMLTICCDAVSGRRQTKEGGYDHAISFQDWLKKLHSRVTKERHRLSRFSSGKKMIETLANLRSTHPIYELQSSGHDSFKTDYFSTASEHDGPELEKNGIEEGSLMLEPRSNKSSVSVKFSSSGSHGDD", "test": "crystal structure; 2.1 A; 30% PEG 400, 0.1 M Tris pH 8.5; EMSA: FBF-2 in 20 mM HEPES pH 7.4, 150 mM NaCl, 0.5 mM TCEP mixed 1:1 with 5 nM final RNA in 10 mM HEPES pH 7.4, 0.01% Tween 20, 0.1 mg/ml BSA, 0.1 mg/ml yeast", "conditions": "protein: recombinant; tags: none (His6-SUMO removed with Ulp1)"}, "[1]": {"molecular_target": "the molecule itself", "test": "crystal structure; FBF-2 RBD + CT with cFBE RNA (5′-CUGUGAAUG-3′), 2.1 Å; CT residues 607-613 seen bound to the RBD of the same construct (intramolecular by the paper's words)"}}, "data": [{"binder": "CUGUGAAUG (ssRNA)", "note": "[cFBE RNA]", "values": [{"measurement": "binding result", "setting": "FBF-2 RBD+CT", "value": "binds"}]}, {"binder": "FBF-2 RBD + CT (FBF-2 residues 164-632) (domain or fragment, C. elegans, UniProt Q09312 164-632, looked up, The tag was cleaved with Ulp1 protease; also called FBF-2^164–632; wild type RBD + CT; source: E. coli BL21-CodonPlus (DE3)-RIL, purified (Ni-NTA, heparin, Superdex 75); not shown: His6-SUMO, N-terminal, cleaved) SNNVLPTWSLDSNGEMRSRLSLSEVLDSGDLMKFAVDKTGCQFLEKAVKGSLTSYQKFQLFEQVIGRKDDFLKLSTNIFGNYLVQSVIGISLATNDDGYTKRQEKLKNFISSQMTDMCLDKFACRVIQSSLQNMDLSLACKLVQALPRDARLIAICVDQNANHVIQKVVAVIPLKNWEFIVDFVATPEHLRQICSDKYGCRVVQTIIEKLTADSMNVDLTSAAQNLRERALQRLMTSVTNRCQELATNEYANYIIQHIVSNDDLAVYRECIIEKCLMRNLLSLSQEKFASHVVEKAFLHAPLELLAEMMDEIFDGYIPHPDTGKDALDIMMFHQFGNYVVQCMLTICCDAVSGRRQTKEGGYDHAISFQDWLKKLHSRVTKERHRLSRFSSGKKMIETLANLRSTHPIYELQSSGHDSFKTDYFSTASEHDGPELEKNGIEEGSLMLEPRSNKSSVSVKFSSSGSHGDD", "values": [{"measurement": "binding result", "setting": "[1]", "value": "binds"}]}]}
